Results on eight molecules are retold here after US12018084B2, “Anti-CXCR2 antibodies and uses thereof” (Cephalon LLC, priority 2018, dated 2024).

Substitutions are numbered along the chain they refer to.

Test [1] has as its target T1, Human CXCR2 (Homo sapiens, UniProt P25025).
T1 sequence (P25025 1-360): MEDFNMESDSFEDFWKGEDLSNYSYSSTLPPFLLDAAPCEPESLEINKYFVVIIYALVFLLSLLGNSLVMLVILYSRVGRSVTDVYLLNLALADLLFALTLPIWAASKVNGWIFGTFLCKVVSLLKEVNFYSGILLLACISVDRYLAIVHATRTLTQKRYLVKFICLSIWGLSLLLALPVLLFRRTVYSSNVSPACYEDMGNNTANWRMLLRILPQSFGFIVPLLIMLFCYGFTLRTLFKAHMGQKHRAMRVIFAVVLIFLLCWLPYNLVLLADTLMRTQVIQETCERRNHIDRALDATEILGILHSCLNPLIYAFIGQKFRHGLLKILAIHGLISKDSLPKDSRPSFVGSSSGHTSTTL
Description: cELISA of hybridoma supernatants on cells transfected with human CXCR2. Type of test: binding. On the set-up: host or cells: Expi293F cells, vector pTT5. Conditions: hybridoma supernatant; fluorescence units relative to positive control (100%). The method, then: To generate hybridomas which produced monoclonal antibodies to human CXCR2, splenocytes and/or lymph node cells from animals with the highest anti-CXCR2 titres were isolated and fused to mouse myeloma cells (ATCC, CRL-1580). Cells were plated at approximately 1×10^5 cells/mL in flat bottom microtiter plates, followed by a two week incubation in selective medium (10% FCS and 1×HAT (Sigma)). Hybridomas were expanded by serial passage through four media changes in 96-well plates (96-well stages 1 to 4), then, where required, expanded into T25 and T75 flasks. […] Bound antibodies were detected using a goat anti-rat IgG-HRP (Southern Biotech, #3030-05) secondary antibody.
A panel of hybridomas was generated using lymph nodes and spleen cells from the transgenic rats engineered to express human variable region sequences. A cellular ELISA (cELISA) was used to detect human CXCR2 binding activity in supernatants taken during the expansion process for the hybridomas (Table 5). Hybridomas that retained expression of antibodies that bound CXCR2 after several passages were selected for DNA sequencing.

In another test the target is T2, Murine CXCR2 (Mus musculus, UniProt P35343).
T2 construct: expressed in transfected cells
T2 sequence (P35343 1-359): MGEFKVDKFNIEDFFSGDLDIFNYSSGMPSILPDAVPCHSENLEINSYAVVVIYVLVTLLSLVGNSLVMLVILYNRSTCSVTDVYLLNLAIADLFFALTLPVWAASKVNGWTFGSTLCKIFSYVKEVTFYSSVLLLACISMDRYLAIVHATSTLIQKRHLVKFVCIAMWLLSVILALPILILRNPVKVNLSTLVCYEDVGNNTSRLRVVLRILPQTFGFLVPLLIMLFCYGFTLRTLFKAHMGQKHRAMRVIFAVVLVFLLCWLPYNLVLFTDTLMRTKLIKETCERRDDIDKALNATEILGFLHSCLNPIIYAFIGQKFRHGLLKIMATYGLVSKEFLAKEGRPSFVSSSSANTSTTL
The test can be described thus: cELISA of hybridoma supernatants on cells transfected with murine CXCR2. It counts as binding. Conditions: hybridoma supernatant; fluorescence units relative to positive control (100%).

In test [2] the target is T1, Human CXCR2. Description: Calcium flux assay, HTS002C-CHEMISCREEN human CXCR2 calcium-optimized cell line. It counts as cell-based. Conditions: human agonist potency. The method, then: One of the signaling pathways downstream of CXCR2 activation that has a role in cell chemotaxis is characterized by calcium mobilization (flux). The ability of BKO-4A8-101c to inhibit human CXCR2 ligand-induced calcium flux was tested in the commercially available HTS002C-CHEMISCREEN™ human CXCR2 chemokine receptor calcium-optimized cell line.
The Fluo-4 NW calcium assay kit (Life Technologies) was used according to manufacturer's protocol for in-cell measurement of calcium mobilization, which was read using a FLIPR Tetra high-throughput cellular screening system (Molecular Devices). The peak response minus the basal response from each well was used to determine inhibition dose response curves fitting a four-parameter logistic equation and IC50 values.
In general terms: Calcium flux is commonly read through the fluorescence of an indicator in the cells.

Test [3] deals with T1, Human CXCR2. Description: Tango CXCR2-bla U2OS cell-based β-arrestin recruitment assay. On the set-up: The beta-arrestin/TEV protease fusion and the beta-lactamase reporter are separate parts of the cell line. The following applies: human agonist potency. From the text:
Cells were thawed, propagated, cultured and frozen according to the manufacturer's directions.
Preparation of Tango™ CXCR2-bla U2OS cells for use in cell-based assays: The manufacturer's protocol was altered to make use of 96-well plates instead of 384-well plates. Briefly, dividing cells were harvested one day prior to use. Cells were harvested and resuspended in assay medium (100% FreeStyle™ Expression Medium; Life Technologies; Cat #12338-018) at a viable cell density of 312,500 cells/mL. 128 μL of cell suspension was added per well in 96-well black-walled, clear bottom tissue culture-treated plates. Cells were incubated for 16-20 hrs at 37° C. in an atmosphere of 5% CO2 prior to use in assays.
Tango™ assay procedure: Assays were set up and run as described in the manufacturer's protocol. For antagonist assays, agonists were used at concentrations in the EC50-EC80 range. Assays were read using a FlexStation® 3 (Molecular Devices) fluorescence plate reader configured with the parameters given in Table 4. The blue/green emission ratio for each well was calculated by dividing the blue emission values by the green emission values. All inhibition curves were fitted using a four-parameter dose-response using GraphPad Prism™ (Version 7.01).
The Human CXCR2 Tango™ cell line was used to assess the ability of antibody BKO-4A8-101c to inhibit β-arrestin recruitment to agonist-activated CXCR2. All human ELR+ chemokine CXCR2 ligands were tested in antagonist dose response assays using calculated EC50 values of agonist.
The commercially available reporter cell line Tango™ CXCR2-bla U2OS (ThermoFisher Scientific) was used to assess the ability of the anti-CXCR2 antibodies to inhibit β-arrestin recruitment to agonist-activated CXCR2. Agonists were provided at their assay EC50 concentration for antagonist assays.
(In general: Activated receptors often draw arrestin, which recruitment assays turn into a signal.)

The target in test [4] is T1, Human CXCR2. Description: Flow cytometry binding assay, Expi293F cells transiently transfected with human CXCR2. On the set-up: host or cells: Expi293F cells, vector pTT5. The following applies: combinatorial variants with light chain c. The method, then: For each 10 mL transfection, lipid-DNA complexes were prepared by diluting 10 μg of plasmid DNA in Opti-MEM™ I Reduced Serum Medium (Cat. no. 31985-062) to a total volume of 1.0 mL. 54 μL of ExpiFectamine™ 293 Reagent was diluted in Opti-MEM™ I medium to a total volume of 1.0 mL. Transfections were carried out according to manufacturer's instructions. The cells were incubated in a 37° C. incubator with a humidified atmosphere of 8% CO2 in air on an orbital shaker rotating at 200 rpm. Approximately 18-24 hours post-transfection, the cell viability was evaluated and transfected cells harvested for use.
Harvested cells were resuspended in FACS buffer (1×PBS+0.5% (w/v) bovine serum albumin (BSA)+2 mM EDTA pH 7.2). Approximately 2×10^5 cells were added per well in a 96-well round-bottomed plate. Cells were pelleted by centrifugation at 400 g for 5 mins at 4° C. and supernatants discarded. 25 μL of each test antibody or control antibody was added to the cells and incubated for 30 minutes at 4° C. Cells were washed twice in 100 μL FACS buffer followed by centrifugation at 400 g for 5 mins at 4° C.
For detection, 50 μL of secondary antibody (Table 2) was added to relevant samples. Commercially available antibodies that bound to transfected CXCR family members were used as positive controls to ensure that the cells were expressing the receptors. Cells were washed twice in 200 μL of FACS buffer followed by centrifugation at 400 g for 5 mins at 4° C. Before sample acquisition, cells were resuspended in 100 μL of FACS buffer. Samples were acquired using the high throughput sampler on a FACSCanto™ II cytometer (Beckton-Dickinson).
Binding of BKO-4A8 and variants thereof was detected by incubation of fluorochrome-conjugate anti-human IgG light chain lambda antibody. The binding activity of antibodies tested, quantified as mean fluorescent intensity, was independent of the antibody Fc region as illustrated in FIG. 9.

B1: BKO-7C11: VH SEQ ID NO: 31, VL SEQ ID NO: 32 (antibody, V domains shown)
VH: QVQLQQWGAGLLKPSETLSLTCAVYGGSFSGYYWSWIRQPPGKGLEWIGEINHSRNTNYNPSLKSRVTISVDTSKNQFSLKLSSVTAADTAVYYCARGEVRGVFTLYWYFDVWGRGTLVTVSS
VL: SSELTQGPAVSVALGQTVRITCQGNSLRFYYASWYQQRPGQAPILVIYDKNNRPSGIPDRFSGSSSGNTASLTITGAQAEDEADYYCNSRDSSGYYMIFGGGTKLTVL
modifications: BKO_7C11_H6_B06_VH; BKO_7C11_G01_VL
With B1, the “Human CXCR2 % Positive” value in the test with Human CXCR2 [1] amounted to 73%. Moreover, the “Murine CXCR2 % Positive” value with Murine CXCR2 is recorded as 4%.

B2: CXCL7: human agonist chemokine, R&D Systems 393-NP (protein)
chain: AELRCMCIKTTSGIHPKNIQSLEVIGKGTHCNQVEVIATLKDGRKICLDPDAPRIKKIVQKKLAGDESAD
One may read the EC50 as the concentration that produces a half-maximal response. As to B2, the EC50 came to 7.14 nM with Human CXCR2 [2] and 39.6 nM with Human CXCR2 [3].

B3: BKO-8C4: VH SEQ ID NO: 39, VL SEQ ID NO: 40 (antibody, V domains shown)
VH: QLQLQESGPGLVKPSETLSLTCTVSGGSIRTSSYYWGWIRQPPGKGLEYIGSIYYSGTTYYNPSLKSRVTMSVDTSKNQFSLKLSSVTAADTAVYYCARHGRVREVPPFDYWGQGTLVTVSS
VL: SSELTQDPAVSVALGQTVRITCQGDSLRYYYASWYQQKPGQAPVLVIYDENSRPSGIPDRFSGSSSGNTASLRITGTQAEDEADYYCNSRDTSGNHWAFGGGTKLTVL
modifications: BKO_8C4_VH; BKO_8C4_VL
Regarding B3, the “Human CXCR2 % Positive” value in the test with Human CXCR2 [1] was determined as 124%. Moreover, in the test with Murine CXCR2, the “Murine CXCR2 % Positive” value is given as 6%.

B4: BKO-1A1: VH SEQ ID NO: 1, VL SEQ ID NO: 2 (antibody, V domains shown)
VH: B3 VH with L84M, T92S
VL: B3 VL with R73S
modifications: BKO_1A1_VH; BKO_1A1_VL
In the case of B4, the “Human CXCR2 % Positive” value with Human CXCR2 [1] is given as 38%. Also, in the test with Murine CXCR2, the “Murine CXCR2 % Positive” value was found to be 6%.

B5: BKO-5E8: VH SEQ ID NO: 21, VL SEQ ID NO: 22 (antibody, V domains shown)
VH: EVQLLESGGGLVQPGGSLRLSCAASGFTFSSYAMSWVRQAPGRGLEWVSAIRGSGAGTYYADSMKGRFTISRDNSKDTLYLLMNSLRAEDTAVYYCSKLEAVSGTGKYFQHWGQGTLVTVSS
VL: SYELTQPPSVSVSPGQTANITCSGDTLGDKFACWYQQKPGQSPVLVIYQDTKRPSGIPERFSGSKSGITATLTISGTQAMDEADFYCQAWNSRGVVFGGGTRLTVL
modifications: BKO_5E8_H5_C05_VH; BKO_5E8_L3_C03_VL
With B5, the “Human CXCR2 % Positive” value with Human CXCR2 [1] amounted to 109%. In addition, in the test with Murine CXCR2, the “Murine CXCR2 % Positive” value is listed as 8%.

B6: 102c: VH SEQ ID NO: 162, VL SEQ ID NO: 110 (antibody, V domains shown)
VH: EVQLLESGGGLVQPGGSLRLSCAASGFTFSSSTQSWVRQPPGKGLEWVSAISGRGRSTYYADSVKGRFTISRDNSKNTLYLQMNSLRAEDTAVYYCAIQEGYWGQGILVTVSS
VL: QSALTQPPSASGSPGQSVTISCIGTSSDVGGYNYVSWYQQHPGKAPKLMIYEVSKRPSGVPDRFSGSKSGNTASLTVSGLQAEDEADYYCSSYAGSNNFGVFGGGTKLTVL
modifications: 4A8 VH Variant 102 M34Q_A40P_N56S_R75K_M96E; 4A8 VL variant c D41G_N52S_N94S
B6: in the test with Human CXCR2 [4], the “CXCR2 binding activity versus parental BKO-4A8” value is given as “reduced”.

B7: BKO-8B6: VH SEQ ID NO: 37, VL SEQ ID NO: 38 (antibody, V domains shown)
VH: EVQLLESGGGLVQPGGSLRLSCAASGFTFSSNAMSWVRQAPGKGLEWVSAISNSGRSTYYADSVKGRFTISRDSSKNTLYLLMNSLRAEDSAVYYCAIKLGYWGQGSLVTVSS
VL: B6 VL with I23T, I50M, N97D, K107R
modifications: BKO_8B6_VH; BKO_8B6_VL
B7: the “Human CXCR2 % Positive” value with Human CXCR2 [1] is on record as 95%. Further, in the test with Murine CXCR2, the “Murine CXCR2 % Positive” value worked out at 6%.

B8: BKO-5G11: VH SEQ ID NO: 23, VL SEQ ID NO: 24 (antibody, V domains shown)
VH: EVQLLESGGGLVQPGGSLRLSCAVSGFTFSNYAMTWVRQAPGKGLEWVSAISGRGSRTYYADSVKGRFTISRDTSKNTLYLQMNSLRAEDTAVYYCAKMDYWGQGTLVTVSS
VL: B6 VL with I23T, Y51F
modifications: BKO_5G11_VH; BKO_5G11_VL
Consider B8, for which the “Human CXCR2 % Positive” value with Human CXCR2 [1] was determined as 101%. Also, the “Murine CXCR2 % Positive” value with Murine CXCR2 is recorded as 22%.
